This note sets out measurements from the supplement of paper PMC10567573.

± gives the standard deviation.

The nature of the data set: protein stability index of a GFP-peptide fusion (GPS, HEK-293T) (PSI 1-6); higher = more stable.
[1] abbreviates: treatment: DMSO, c terminus: a fixed tail appended.
[2] abbreviates: treatment: MLN4924 1 uM, 8 h, c terminus: a fixed tail appended.
The mark [3] stands for this setting: treatment: DMSO, c terminus: native.
Setting [4] is: treatment: MLN4924 1 uM, 8 h, c terminus: native.
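Also: 24-mer peptide tiles fused after GFP, lentivirally expressed, FACS-sorted into six equal bins by GFP/DsRed ratio, decoded by Illumina sequencing, PSI is the read-weighted mean bin number.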

In turn, EIIEGNTKSHIMLVQRQMSVIEED [NECAB1] gave a protein stability index under setting [1] of 3.56 ± 0.35 and a protein stability index under setting [2] of 3.73 ± 0.26.

As for EILEIDDLDAIVPAVKKLKVLSY [CEP70], the protein stability index under setting [3] came to 2.87 ± 0.8 and the protein stability index under setting [4] turned out to be 3.1 ± 0.041.

Turning to EILHQQNIHQLQNRLSELEVANKD [SASS6], the protein stability index worked out at 3.99 ± 0.19 under setting [1] and 4.13 ± 0.34 under setting [2].

Regarding EISLEDLIERERSALGPNVTKITL [ZC3H15], the protein stability index is 2.77 ± 0.3 under setting [1] and 2.96 ± 0.48 under setting [2].

Regarding EKALASILLQDHIRDLDVVVVSVA [ATL3], the protein stability index is, setting by setting: under setting [1], 2.52 ± 0.65; under setting [2], 2.21 ± 0.53.

As to EKEAKDLTELVQRRITYLQNPKDC [FUT8], the protein stability index reads like this: under setting [1], 4.76 ± 0.17; under setting [2], 4.9 ± 0.13.

Turning to EKEKKNRKGKDKENGSVSSSETPP [EIF5], the protein stability index is, setting by setting: under setting [1], 5.58 ± 0.24; under setting [2], 5.65 ± 0.13.

As for EKIHEMVKKNSAKSMGLKKKAFVW [ACSBG2], the protein stability index is, setting by setting: under setting [1], 2.49 ± 0.2; under setting [2], 2.45 ± 0.3.

For EKLAPSEITEELPSSQLMPVKKQL [ZNF396], the protein stability index reads like this: under setting [1], 5.17 ± 0.15; under setting [2], 5.14 ± 0.21.

Regarding EKLTKITRTGPSAWETKKILAVSF [PCMTD2], the protein stability index is 2.57 ± 0.57 under setting [1] and 2.37 ± 0.66 under setting [2].

Consider EKMTILQTYFRQNRDEVLDNLLAF [ATP6V1G1], for which the protein stability index came out at 2.7 ± 0.46 under setting [1] and 2.632 ± 0.015 under setting [2].

In turn, EKTGPQLTSRIKGDWIGLYRHFLK [DENND6A] registered a protein stability index under setting [1] of 2.15 ± 0.34 and a protein stability index under setting [2] of 2.08 ± 0.21.

Consider ELEGDVAEPLAGPACVTVILPSCV [KLHL14], for which the protein stability index is, setting by setting: under setting [1], 3.32 ± 0.54; under setting [2], 3.14 ± 0.14.

Turning to ELFRIGGKSPDTNYLFMGDYVDRG [PPP2CA], the protein stability index turned out to be 2.49 ± 0.39 under setting [1] and 2.48 ± 0.11 under setting [2].

Regarding ELFRLRGIKAQVALRLAELARRRR [NOP53], the protein stability index is, setting by setting: under setting [1], 2.36 ± 0.23; under setting [2], 2.55 ± 0.22.

ELFVREPTGRLPALVRWWNGIGAV [MYORG]: the protein stability index was found to be 2.26 ± 0.38 under setting [1] and 2.4 ± 0.41 under setting [2].

On to ELNHGRQGENQEHLVIAEMMELGS [FATE1], for which the protein stability index amounted to 4.3 ± 0.29 under setting [1] and 4.27 ± 0.36 under setting [2].

Turning to ELQSQLSMKASLEGNLAETENRYC [KRT17], the protein stability index under setting [1] was 3.93 ± 0.25 and the protein stability index under setting [2] came out at 4.18 ± 0.14.

For the sequence ELSPPLSPASHVDVDLTIHGRHID [FOXJ1], the protein stability index came to 4.82 ± 0.18 under setting [1] and 4.84 ± 0.064 under setting [2].

EMETLETSTKTDSEEGSWAQTLAY [PPFIA4]: the protein stability index turned out to be 5.04 ± 0.15 under setting [1] and 4.62 ± 0.069 under setting [2].

Regarding ENELMISYLMFLQILVYFSFMSW [FAM98B], the protein stability index reads like this: under setting [3], 3.17 ± 0.67; under setting [4], 3.26 ± 0.33.

Take EPEKIYAMPDPTVPDSDIKALTTL [ESRRG]: the protein stability index under setting [1] was 4.46 ± 0.15 and the protein stability index under setting [2] stood at 4.6 ± 0.2.

EPNNIVVLLQTSPYHVDSLLQLSD [TCF25]: the protein stability index was 2.44 ± 0.3 under setting [1] and 2.11 ± 0.26 under setting [2].

As to EPPHNLFCAPGSWEWNELDHIMEI [SERTAD3], the protein stability index by setting is: under setting [1], 2.93 ± 0.13; under setting [2], 3.07 ± 0.25.

With EPYPSQLLKPIPEYSPEEESEPPA [TRAF3IP2], the protein stability index turned out to be 5.45 ± 0.12 under setting [1] and 5.66 ± 0.18 under setting [2].

As to EQCIKLWLHALHLRQKGNRNTHKD [FEM1B], the protein stability index by setting is: under setting [1], 2.39 ± 0.21; under setting [2], 2.59 ± 0.39.

Regarding EQIGHILVSWLPRLNAYRGYCSNQ [NET1], the protein stability index was 2.67 ± 0.51 under setting [1] and 2.65 ± 0.18 under setting [2].

Regarding ERAELAASLGLTQTQVKIWFQNKR [DLX1], the protein stability index was 3.59 ± 0.34 under setting [1] and 3.87 ± 0.44 under setting [2].

As for EREPVRGQCLDSTDQLEFTVEPRL [RTN2], the protein stability index by setting is: under setting [1], 4.78 ± 0.2; under setting [2], 4.71 ± 0.2.

Sequence ERPLPNPEGLDSDFLAVLSDYPSP [SLA] showed a protein stability index under setting [1] of 4.26 ± 0.39 and a protein stability index under setting [2] of 4.58 ± 0.41.

ERVWALAQEKAADVQARLNRSDHG [FCHSD1] gave a protein stability index under setting [1] of 4.23 ± 0.13 and a protein stability index under setting [2] of 4.23 ± 0.24.

On to ESEDCKLPCNPCATTNASGNSCGP [KRT34], for which the protein stability index stood at 5.21 ± 0.12 under setting [1] and 5.25 ± 0.17 under setting [2].

ESKEPIEEEPTGAGLNKDKETEER [SDE2]: the protein stability index by setting is: under setting [1], 5.57 ± 0.34; under setting [2], 5.7 ± 0.13.

As to ESLPRSEIDEKVTDLVQFLLFKYQ [MAGEA10], the protein stability index was determined as 2.35 ± 0.069 under setting [1] and 2.83 ± 0.5 under setting [2].

As for EVDWEYFYGLLFTSENLKLVHIVC [DFFB], the protein stability index by setting is: under setting [1], 3.34 ± 0.39; under setting [2], 2.56 ± 0.94.

For EVKRAFFSKSKELHPDRDPGNPSL [DNAJC4], the protein stability index amounted to 3.89 ± 0.12 under setting [1] and 4.03 ± 0.37 under setting [2].

On to EVLGPLCLMLLMGTVHCQIVSTQI [PHTF1], for which the protein stability index is, setting by setting: under setting [1], 3.27 ± 0.15; under setting [2], 3.19 ± 0.2.

Take EVRYYLRQIVSGLKYLHEQEILHR [PLK2]: the protein stability index by setting is: under setting [1], 3.11 ± 1; under setting [2], 2.91 ± 0.58.

In the case of EVSADDETPNPPQSAQIACSSPSV [MAGEA10], the protein stability index turned out to be 5.57 ± 0.28 under setting [1] and 5.42 ± 0.21 under setting [2].

Take EVTADDRKVKSTITLDGGVLVHVQ [FABP4]: the protein stability index is, setting by setting: under setting [1], 3.7 ± 0.37; under setting [2], 3.99 ± 0.17.

As to EVTDTGDPIVRPLWWIAPGDETAH [MYORG], the protein stability index reads like this: under setting [1], 4.25 ± 0.28; under setting [2], 4.38 ± 0.35.

Turning to EWETEVEMDKLRASDIMEPNLTYV [CLCN6], the protein stability index is, setting by setting: under setting [1], 3.85 ± 0.32; under setting [2], 4.08 ± 0.19.

As for EYLIRLFQEWEAHRNLSQLPNFAF [TCF25], the protein stability index by setting is: under setting [1], 2.32 ± 0.7; under setting [2], 2.39 ± 0.24.

Consider EYRQKHGVPPLKLCKNLNREAQQY [GLIPR2], for which the protein stability index by setting is: under setting [1], 3.42 ± 0.16; under setting [2], 3.4 ± 0.28.

FAALRASLVAPLLLELAGEVTDTG [MYORG]: the protein stability index reads like this: under setting [1], 2.13 ± 0.39; under setting [2], 2.36 ± 0.4.

Regarding FAWSQGHRTVKLVPWSQCLQNFLL [WSB1], the protein stability index runs as follows: under setting [1], 1.99 ± 0.83; under setting [2], 2.3 ± 0.031.

Sequence FCLLSCGILTFLAVLGRYVPGLLL [RETREG3] yielded a protein stability index under setting [1] of 2.36 ± 0.32 and a protein stability index under setting [2] of 2.09 ± 0.23.

For FCNISLFEDLPLQEPQSPQKLNPG [PLAGL1], the protein stability index under setting [1] stood at 3 ± 0.2 and the protein stability index under setting [2] came to 3.21 ± 0.25.

Regarding FDEKIVPILKRKLPGSDVSGRLMG [FBXO28], the protein stability index by setting is: under setting [1], 2.75 ± 0.48; under setting [2], 3.48 ± 0.47.

FDLNNLDPELKNLFDMCGISEAQL [WASL]: the protein stability index by setting is: under setting [1], 2.62 ± 0.55; under setting [2], 2.83 ± 0.69.

Turning to FDRTEWVQIRRLEAAGESLEEEIR [ZC2HC1C], the protein stability index reads like this: under setting [1], 4.02 ± 0.08; under setting [2], 4.55 ± 0.1.

With FDVDHGICIMDAENITTVSVIKDH [WDR88], the protein stability index turned out to be 3.27 ± 0.2 under setting [1] and 3.25 ± 0.25 under setting [2].

In the case of FEDEVKRLGWQQQAELQELEERLQ [MTUS2], the protein stability index is, setting by setting: under setting [1], 4.17 ± 0.4; under setting [2], 4.28 ± 0.54.

FGKDFRKGLLKKGACYGDDACFVA [PPTC7]: the protein stability index stood at 2.24 ± 0.31 under setting [1] and 2.53 ± 0.35 under setting [2].

Consider FGVAVVITNQVVAQVDGAAMFAAD [RAD51], for which the protein stability index by setting is: under setting [1], 3.26 ± 0.59; under setting [2], 2.96 ± 0.62.

FIEIELDRQELTYQELLRVCCCEL [ANKRD40]: the protein stability index reads like this: under setting [1], 2.67 ± 0.61; under setting [2], 2.67 ± 0.66.

As for FKEQLQALIPYVLNPSKLMEKEIN [ATL3], the protein stability index under setting [1] was 1.91 ± 0.28 and the protein stability index under setting [2] came out at 2.22 ± 0.24.

For the sequence FKGNKYWAVQGQNVLHGYPKDIYS [MMP1], the protein stability index came out at 2.3 ± 0.21 under setting [1] and 2.46 ± 0.2 under setting [2].

As for FLTHFILMNDVIDTSGFPDLSDNR [FBXO33], the protein stability index turned out to be 2.41 ± 0.47 under setting [1] and 2.27 ± 0.43 under setting [2].

Sequence FLVLQSLLERQVEMTPEKFSVLME [FANCE] displayed a protein stability index under setting [1] of 2.13 ± 0.39 and a protein stability index under setting [2] of 2.11 ± 0.3.

As for FPAEERARVLDRRGCSRVEGGGTS [ANKRD9], the protein stability index was 4.42 ± 0.2 under setting [1] and 4.53 ± 0.28 under setting [2].

For the sequence FPSLQVTAILIECGADVNVRDSDD [FEM1C], the protein stability index turned out to be 2.44 ± 0.18 under setting [1] and 2.37 ± 0.39 under setting [2].

FQHHAKPNCFRKDPDINMHPFFFA [FADS1]: the protein stability index runs as follows: under setting [1], 2.2 ± 0.43; under setting [2], 2.29 ± 0.19.

For FRKIKDHFCPFENQFHTEIQILA [C8orf76], the protein stability index by setting is: under setting [3], 2.69 ± 1; under setting [4], 3.26 ± 0.27.

Turning to FSAPDPPRPRPVSLSLRLPHQPVT [SMTNL2], the protein stability index is, setting by setting: under setting [1], 3.77 ± 0.12; under setting [2], 3.91 ± 0.27.

As for FSASERLSLKRELSWYRGRRPRTA [HESX1], the protein stability index is, setting by setting: under setting [1], 2.7 ± 0.28; under setting [2], 3.22 ± 0.32.

Regarding FSFRYQQELEEEIKELYENFCKHN [ATL3], the protein stability index by setting is: under setting [1], 2.57 ± 0.38; under setting [2], 2.86 ± 0.44.

As to FSQKSCLVAHQRYHTGKTPFVCPE [ZNF649], the protein stability index turned out to be 2.58 ± 0.13 under setting [1] and 2.6 ± 0.23 under setting [2].

Consider FSQYGRIITSRILVDQVTGVSRGV [ELAVL3], for which the protein stability index is, setting by setting: under setting [1], 2.23 ± 0.26; under setting [2], 2.33 ± 0.23.

Consider FVEDQAVVETVFFLTSRTRALLRR [ZSWIM9], for which the protein stability index stood at 2.21 ± 0.25 under setting [1] and 2.22 ± 0.14 under setting [2].

For FVFSTEERTQLRLESLEDTHIMKG [TRIB1], the protein stability index is, setting by setting: under setting [1], 2.85 ± 0.63; under setting [2], 3.36 ± 0.41.

FVGDLSPEITTEDIKAAFAPFGRI [TIA1]: the protein stability index is, setting by setting: under setting [1], 3.11 ± 1; under setting [2], 2.7 ± 0.18.
